Source: PMC2268108

How the values were obtained:
[1] = target: canine kidney Na,K-ATPase (αβ protomer), erythrosin-labelled (dog (endogenous in kidney)) (UniProt P50997); experiment: time-resolved phosphorescence anisotropy
[2] = target: Na/K pump α1 subunit-CFP fusion; experiment: FRET or BRET

For “canine kidney Na,K-ATPase (αβ protomer), erythrosin-labelled (from UniProt P50997;P06583) (complex)”, the stoichiometry N [1] was 2.
Substance “phospholemman-citrineYFP fusion (natural protein)” has an increase of donor fluorescence on acceptor photobleaching [2] of 23.8%.
